{"source": "paper PMC13489962", "about": "“Small-molecule modulation of β-arrestins” (Nature, 2026)", "key": {"[1]": {"tested_on": "Gi-mediated inhibition of adenylyl cyclase (D2R, M2R)", "experiment": "GloSensor cAMP Gi activity assay at D2R or M2R", "format": "cell-based", "conditions": "modulators 50 μM, 15 min; PTX 100 ng/mL overnight; forskolin 2 μM", "procedure": "Gi-mediated inhibition of adenylyl cyclase was assessed using the GloSensor cAMP bioluminescence biosensor (Promega). HEK293 cells were transiently transfected with D2R or M2R together with the GloSensor cAMP reporter construct, using FuGENE 6 per the manufacturer’s protocol. Cells were seeded into poly-D-lysine-coated white clear-bottom 96-well plates at 60,000 cells per well and cultured for 24 h. GloSensor reagent was added per the manufacturer’s instructions and cells were equilibrated for 1 h at room temperature. Where indicated, pertussis toxin (PTX; 100 ng ml^−1) was applied overnight as a positive control for Gi blockade. Compounds (Cmpd-5, Cmpd-46 or Cmpd-64; 50 μM) or vehicle (DMSO) in HBSS supplemented with 20 mM HEPES (pH 7.4) and 0.05% BSA were applied for 15 min at room temperature. Cells were stimulated with forskolin (2 μM, 5 min), followed by concentration-response stimulation with quinpirole (D2R) or acetylcholine (M2R). Luminescence was recorded every 5 min over 30 min using a CLARIOstar microplate reader (BMG Labtech). Forskolin-stimulated cAMP, quantified at 10 min after agonist addition, was normalized to the maximal forskolin response per condition. Gi activity was derived from the inhibitory plateau and expressed as a percentage of the DMSO plus agonist control."}, "[2]": {"molecular_target": "phosphorylated β2V2R (pβ2V2R): N-terminal Flag-tagged T4 lysozyme fusion-β2V2R (β2AR residues 1–341 fused to V2R residues 328–372) (UniProt P07550)"}, "[3]": {"molecular_target": "β2V2R fused to the ProLink tag (inactive portion of β-galactosidase), in U2OS PathHunter cells", "experiment": "split reporter (BiFC, NanoBiT); PathHunter β-galactosidase enzyme fragment complementation in U2OS cells co-expressing βARR2 (enzyme acceptor) and β2V2R (ProLink); modulators or vehicle 30 min, then isoproterenol 60 min at 37 °C"}}}
{"substance": "pertussis toxin", "values": [{"measurement": "effect on agonist-induced, Gi-mediated cAMP reduction at D2R or M2R", "setting": "[1]", "result": "abolished this response entirely"}]}
{"substance": "β-arrestin2 (βARR2), rat, C terminus truncated at amino acid 394 (from UniProt P29067 1-394) (domain or fragment)", "values": [{"measurement": "reduction of β-arrestin-mediated high-affinity [^3H]-Fen binding to pβ2V2R by Cmpd-5, Cmpd-46 and Cmpd-64, each (100 μM)", "setting": "[2]", "result": 40, "unit": "%"}]}
{"substance": "βARR2 fused to the enzyme acceptor (EA) portion of β-galactosidase, in U2OS PathHunter cells (from UniProt P32121 1-409) (natural protein)", "values": [{"measurement": "reduction of Emax of Iso-induced recruitment with 50 μM Cmpd-46", "setting": "[3]", "result": 77.3, "unit": "%"}, {"measurement": "reduction of Emax of Iso-induced recruitment with 50 μM Cmpd-64", "setting": "[3]", "result": 74.4, "unit": "%"}]}
